Source: patent publication US9789213B2, “EGFL7 targeting and/or binding polypeptides and methods for inhibiting angiogenesis” (LONDON HEALTH SCIENCES CENTRE RESEARCH INC., priority 2012, dated 2017)
Where no end group is shown, it is not given here. The star is where a group is joined. FITC = O=C1OC2(c3ccc(O)cc3Oc3cc(O)ccc32)c2ccc(NC(=S)*)cc21

Key:
[1] = biological target: T1, recombinant GST-EGFL7 protein (Homo sapiens, UniProt Q9UHF1); test: OBOC peptide library screen ('beads on a bead') with secondary cell-based screen; format: binding; details: hit beads from magnetic-bead screen and secondary cell-based screen
T1 construct: Magnetic nanobeads are then coated with full-length recombinant EGFL7; made in house; host or cells: Spodoptera frugiperda Sf21 (baculovirus)
T1 sequence (Q9UHF1 24-273): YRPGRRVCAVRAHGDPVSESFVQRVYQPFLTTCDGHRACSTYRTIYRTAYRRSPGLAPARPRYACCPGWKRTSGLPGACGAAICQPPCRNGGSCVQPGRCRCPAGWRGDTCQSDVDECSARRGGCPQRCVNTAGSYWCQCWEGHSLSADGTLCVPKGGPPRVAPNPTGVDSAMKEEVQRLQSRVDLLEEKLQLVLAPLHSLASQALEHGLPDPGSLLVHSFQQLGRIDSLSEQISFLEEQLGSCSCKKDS
Description: The present invention also encompasses methods of screening polypeptides to identify those that interact with EGFL7 and modulate and EGFL7 activity and/or function. In a specific aspect, a combinatorial peptide library is screened using a “beads on a bead” approach, as set out in FIG. 1 and described in Cho et al., which is incorporated herein by reference in its entirety. […] Magnetic nanobeads are then coated with full-length recombinant EGFL7, are mixed with the peptide library, and the most highly interacting library bead “hits” are sorted using large format flow cytometry. An on-bead cell binding assay can then be used to validate the peptide hits using human endothelial cells. Validated hit peptides are then sequenced using an in-house MALDI-TOF/MS technique, and their binding affinity to EGFL7 is quantified using surface plasmon resonance (SPR) (Amadei et al. 2009, J. Mass Spectrometry, 45:241-51; U.S. Pat. Nos. 5,510,240; and 7,262,269, each of which is incorporated by reference herein in its entirety).
All fractions containing EGFL7 recombinant protein were pooled together. 30 μg of anti-GST antibody was mixed into the protein solution, and incubated with 370 mg of MagnaBind Protein A/G magnetic beads (Thermo Scientific) for 15 minutes at 4° C. After several washing with wash buffer, the proteins were released from the magnetic beads by boiling in SDS loading buffer, and analyzed by western blot using anti-EGFL7 polyclonal antibody (R&D Systems).
The OBOC peptide library beads were washed extensively using 70% ethanol, distilled water and binding buffer (50 mM Na2HPO4, 150 mM NaCl, 2 mM CaCl2, 0.5M L-Arginine, pH 7.4) before screening. The magnetic beads were mixed with the library beads in a glass vial, and incubated at 37° C. for 1 hour, A strong magnet was placed at the side of the vial, and the library was screened as described in Cho et al. Positive hits were pooled and washed extensively with ethanol and water. A secondary cell-based screen was performed using EGFL7-positive HT1080 fibrosarcoma cells expressing tdTomato, and EGFL7-negative MDA435 breast cancer cells expressing GFP as described in Cho et al. Hit beads were collected and peptides were sequenced on-bead using MALDI TOF MS/MS as described in Cho et al.
Recombinant EGFL7 protein was purified (FIGS. 2A and 2B) and conjugated onto magnetic beads. Western blot analysis was performed to show successful conjugation of purified EGFL7 onto magnetic beads using a polyclonal anti-EGFL7 antibody (FIG. 2C). EGFL7-conjugated magnetic beads were then mixed with a OBOC combinatorial peptide library, and positive hits were isolated using a strong neodynium magnet. […] Beads were examined under an inverted fluorescence microscope, and hit beads that strongly associated with red cells, but had little or no interaction with green cells were isolated manually.

[2] = tested on: HUVECs; test: Cell uptake of FITC-labelled peptide by HUVECs with or without EGFL7 siRNA knockdown, flow cytometry; format: cell-based, human; details: HUVECs treated with negative siRNA or EGFL7 siRNA; 1 mM, 1 hour at 4° C.
Experimental: EGFL7 knockdown in human umbilical vein endothelial cells (HUVECs) was achieved using a siRNA targeting the exon 5 of the protein and INTERFERin transfection reagent (HUVECs-si). Wildtype HUVECs and HUVECs-si cells were seeded onto separate wells in a 6-well tissue culture plate to approximately 80% confluency. The cells were incubated overnight in DMEM containing 10% fetal bovine serum and Pen/Strep at 37° C. with 5% CO2. The media in each well were removed and replaced with pre-chilled PBS. FITC-E7-p72 (FITC-HMYFLLGH; SEQ ID NO: 20) was added onto cells to a final concentration of 1 mM and incubated for 1 hour at 4° C. Cells were detached from the well with EDTA, washed three times with PBS, and fixed with 4% formaldehyde. The uptake of FITC-labeled peptides was analyzed by flow cytometry.

Row | Substance | affinity for EGFL7 in OBOC peptide library screening [1] | uptake of fluorescein-labelled peptide [2]
1 | WYKLHPTM (EGFL7 interacting peptide) | high affinity | –
2 | RYQLHHPR (EGFL7 interacting peptide) | high affinity | –
3 | RYVDHEDW (EGFL7 interacting peptide) | high affinity | –
4 | {FITC}-HMYFLLGH [FITC-E7-p72] | – | dependent on EGFL7 expression
5 | AYYEEAYE (EGFL7 interacting peptide) | high affinity | –
6 | SQSSMYPS (EGFL7 interacting peptide) | high affinity | –
7 | EWELHAEE (EGFL7 interacting peptide) | high affinity | –
8 | DPYDHEFR (EGFL7 interacting peptide) | high affinity | –
